Measurements from article PMC2112702 (The Journal of Cell Biology, 1983).

Molecular target: clathrin (Mr ~180,000 polypeptide) (bovine (calf brain), UniProt P49951 1-1675)
Experiment: co-sedimentation

Sequence of clathrin (Mr ~180,000 polypeptide) (P49951 whole entry): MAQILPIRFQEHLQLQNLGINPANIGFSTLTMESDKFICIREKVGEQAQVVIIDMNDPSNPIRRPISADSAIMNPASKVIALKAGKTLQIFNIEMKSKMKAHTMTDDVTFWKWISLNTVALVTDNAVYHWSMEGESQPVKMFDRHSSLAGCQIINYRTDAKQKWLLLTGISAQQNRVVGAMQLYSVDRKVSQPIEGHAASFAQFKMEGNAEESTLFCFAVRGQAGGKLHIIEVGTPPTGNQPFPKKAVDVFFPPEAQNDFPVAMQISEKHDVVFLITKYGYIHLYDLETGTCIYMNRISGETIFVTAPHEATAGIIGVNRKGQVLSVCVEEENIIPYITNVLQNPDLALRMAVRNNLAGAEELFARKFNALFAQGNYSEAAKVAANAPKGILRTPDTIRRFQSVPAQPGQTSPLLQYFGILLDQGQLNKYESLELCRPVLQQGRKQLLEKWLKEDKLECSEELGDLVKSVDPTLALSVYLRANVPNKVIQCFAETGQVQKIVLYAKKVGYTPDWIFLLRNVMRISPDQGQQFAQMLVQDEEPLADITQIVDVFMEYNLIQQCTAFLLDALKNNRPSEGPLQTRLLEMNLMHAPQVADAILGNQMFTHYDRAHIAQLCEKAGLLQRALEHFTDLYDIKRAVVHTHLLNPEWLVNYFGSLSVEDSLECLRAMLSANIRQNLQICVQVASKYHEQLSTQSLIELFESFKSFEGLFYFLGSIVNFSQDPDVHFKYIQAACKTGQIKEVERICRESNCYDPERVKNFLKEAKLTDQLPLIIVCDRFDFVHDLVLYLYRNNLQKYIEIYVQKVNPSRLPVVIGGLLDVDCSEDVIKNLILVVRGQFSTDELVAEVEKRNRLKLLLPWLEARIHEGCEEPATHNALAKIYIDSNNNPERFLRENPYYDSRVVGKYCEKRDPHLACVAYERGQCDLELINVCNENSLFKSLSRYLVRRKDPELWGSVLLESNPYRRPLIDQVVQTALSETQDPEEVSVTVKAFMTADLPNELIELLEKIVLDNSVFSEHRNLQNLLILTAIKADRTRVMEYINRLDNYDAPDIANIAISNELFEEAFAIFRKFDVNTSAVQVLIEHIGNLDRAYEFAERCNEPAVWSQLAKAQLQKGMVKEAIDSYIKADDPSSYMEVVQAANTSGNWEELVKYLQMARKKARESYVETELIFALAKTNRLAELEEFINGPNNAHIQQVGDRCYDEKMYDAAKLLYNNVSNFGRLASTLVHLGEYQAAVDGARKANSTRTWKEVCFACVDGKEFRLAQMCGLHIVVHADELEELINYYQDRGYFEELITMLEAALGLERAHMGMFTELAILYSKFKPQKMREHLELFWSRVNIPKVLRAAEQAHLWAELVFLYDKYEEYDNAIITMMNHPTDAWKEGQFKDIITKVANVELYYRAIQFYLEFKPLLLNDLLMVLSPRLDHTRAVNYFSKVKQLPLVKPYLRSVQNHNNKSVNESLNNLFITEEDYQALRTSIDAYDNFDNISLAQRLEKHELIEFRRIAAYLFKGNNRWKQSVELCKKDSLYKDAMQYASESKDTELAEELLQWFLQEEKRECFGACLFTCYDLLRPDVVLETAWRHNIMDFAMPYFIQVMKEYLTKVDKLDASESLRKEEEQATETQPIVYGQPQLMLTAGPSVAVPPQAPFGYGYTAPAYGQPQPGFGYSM

B1: clathrin light chain, Mr 33,000 (natural protein, bovine (calf brain), UniProt P04975 1-228, looked up)
chain: MADDFGFFSSSESGAPEAAEEDPAAAFLAQQESEIAGIENDEGFGAPAGSQGGLAQPGPASGASEDMGATVNGDVFQEANGPADGYAAIAQADRLTQEPESIRKWREEQRKRLQELDAASKVMEQEWREKAKKDLEEWNQRQSEQVEKNKINNRIADKAFYQQPDADIIGYVASEEAFVKESKEETPGTEWEKVAQLCDFNPKSSKQCKDVSRLRSVLMSLKQTPLSR
  stoichiometry N: 1.62 mol per 3.00 mol of 180,000 clathrin (one triskelion)

B2: clathrin light chain, Mr 36,000 (natural protein, bovine (calf brain), UniProt P04973 1-243, looked up)
chain: MAELDPFGVPAGGPALGNGVAGEEDPAAAFLAQQESEIAGIENDEAFAILDGGAPGSQPHGEPPGIPDAVDGVTNGDYYQESNGPTDSYAAISQVDRLQSEPESIRKWREEQTERLEALDANSRKQEAEWKEKAIKELDEWYARQDEQLQKTKANNRVADEAFYKQPFADVIGYVTNINHPCYSLEQAAEEAFVNDIEESSPGTEWERVARLCDFNPKSSKQAKDVSRMRSVLISLKQAPLVH
  stoichiometry N: 0.83 mol per 3.00 mol of 180,000 clathrin (one triskelion)
